Measurements from patent US20150104448A1 (TRUE NORTH THERAPEUTICS, published 2015).
Changes are numbered by the printed parent chain.

T1: purified human activated C1s protein, two-chain form (Homo sapiens, UniProt P09871 16-688)
T1 construct: Also used here for C1s acting in human serum assays; also called human C1s; active C1s
T1 sequence: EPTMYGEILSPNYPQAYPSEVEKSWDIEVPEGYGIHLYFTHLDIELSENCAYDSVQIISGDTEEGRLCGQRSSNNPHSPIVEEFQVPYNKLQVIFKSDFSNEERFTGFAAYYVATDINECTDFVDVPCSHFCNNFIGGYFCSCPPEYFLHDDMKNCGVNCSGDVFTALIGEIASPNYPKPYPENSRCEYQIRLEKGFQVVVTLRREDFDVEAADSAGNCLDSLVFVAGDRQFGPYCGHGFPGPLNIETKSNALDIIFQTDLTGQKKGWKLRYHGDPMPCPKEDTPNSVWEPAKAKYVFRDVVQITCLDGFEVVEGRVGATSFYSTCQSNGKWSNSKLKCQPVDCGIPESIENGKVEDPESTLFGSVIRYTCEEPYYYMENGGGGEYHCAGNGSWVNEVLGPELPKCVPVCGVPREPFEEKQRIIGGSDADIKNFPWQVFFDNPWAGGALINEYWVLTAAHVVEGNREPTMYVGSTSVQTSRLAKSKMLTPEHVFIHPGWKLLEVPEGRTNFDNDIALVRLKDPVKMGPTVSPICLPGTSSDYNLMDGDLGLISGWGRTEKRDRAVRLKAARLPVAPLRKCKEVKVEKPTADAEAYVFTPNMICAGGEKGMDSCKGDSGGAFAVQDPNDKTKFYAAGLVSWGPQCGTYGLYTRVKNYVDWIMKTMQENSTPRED

T2: Inactive-C1s (Homo sapiens, UniProt P09871)
T2 construct: proenzyme (pro-C1s); also called pro-C1s
T2 sequence (single chain, looked up): T1 sequence

B1: VH1/Vk2 (antibody, V domains shown)
VH: EVMLVESGGGLVKPGGSLRLSCAASGFTFSNYAMSWVRQAPGKGLEWVATISSGGSHTYYLDSVKGRFTISRDNSKDTLYLQMSSLRAEDTALYYCARLFTGYAMDYWGQGTSVTVSS
VL: QIVLTQSPATLSLSPGERATMSCTASSSVSSSYLHWYQQKPGKAPKLWIYSTSNLASGVPSRFSGSGSGTDYTLTISSLQPEDFATYYCHQYYRLPPITFGQGTKLEIK
notes: member of group m7; also called VH1/Vκ2; VH variant 1 + Vk variant 2
B2: VH3/Vk2 (antibody, V domains shown)
VH: B1 VH
VL: B1 VL
notes: member of group m7; also called VH3/Vκ2; VH variant 3 + Vk variant 2
B3: VH2/Vk1 (antibody, V domains shown)
VH: B1 VH with S84N, S113L
VL: B1 VL with T10I, D71F, P81A
notes: member of group m7; also called VH2/Vκ1; VH variant 2 + Vk variant 1
B4: VH4/Vk1 (antibody, V domains shown)
VH: B1 VH with M3Q, D77N, S84N, S113L
VL: B1 VL with T10I, D71F, P81A
notes: member of group m7; also called VH4/Vκ1; VH variant 4 + Vk variant 1
B5: VH1/Vk3 (antibody, V domains shown)
VH: B1 VH
VL: B1 VL with M21L
notes: member of group m7; also called VH1/Vκ3; VH variant 1 + Vk variant 3
B6: VH4/Vk3 (antibody, V domains shown)
VH: B1 VH with M3Q, D77N, S84N, S113L
VL: B1 VL with M21L
notes: member of group m7; also called VH4/Vκ3; VH variant 4 + Vk variant 3
B7: VH2/Vk2 (antibody, V domains shown)
VH: B1 VH with S84N, S113L
VL: B1 VL
notes: member of group m7; also called VH2/Vκ2; VH variant 2 + Vk variant 2
B8: VH4/Vk2 (antibody, V domains shown)
VH: B1 VH with M3Q, D77N, S84N, S113L
VL: B1 VL
notes: member of group m7; also called VH4/Vκ2; VH variant 4 + Vk variant 2
B9: VH3/Vk3 (antibody, V domains shown)
VH: B1 VH
VL: B1 VL with M21L
notes: member of group m7; also called VH3/Vκ3; VH variant 3 + Vk variant 3
B10: VH3/Vk1 (antibody, V domains shown)
VH: B1 VH
VL: B1 VL with T10I, D71F, P81A
notes: member of group m7; also called VH3/Vκ1; VH variant 3 + Vk variant 1
B11: VH2/Vk3 (antibody, V domains shown)
VH: B1 VH with S84N, S113L
VL: B1 VL with M21L
notes: member of group m7; also called VH2/Vκ3; VH variant 2 + Vk variant 3
B12: VH1/Vk1 (antibody, V domains shown)
VH: B1 VH
VL: B1 VL with T10I, D71F, P81A
notes: member of group m7; also called VH1/Vκ1; VH variant 1 + Vk variant 1

Molecular target: T1, purified human activated C1s protein, …
Assay: kinetic binding measurement, method not stated; Table 9, activated C1s

Row | Kd [pM] | koff [s⁻¹] | kon [M⁻¹ s⁻¹] | Binder
1 | 262 | 0.000274 | 1.05e+06 | B1
2 | 274 | 0.000311 | 1.13e+06 | B2
3 | 256 | 0.000274 | 1.07e+06 | B3
4 | 228 | 0.000271 | 1.19e+06 | B4
5 | 376 | 0.000343 | 914000 | B5
6 | 298 | 0.00031 | 1.04e+06 | B6
7 | 273 | 0.00028 | 1.03e+06 | B7
8 | 262 | 0.000264 | 1e+06 | B8
9 | 335 | 0.00036 | 1.08e+06 | B9
10 | 246 | 0.000254 | 1.03e+06 | B10
11 | 296 | 0.000281 | 948000 | B11
12 | 235 | 0.000228 | 973000 | B12

Molecular target: T2, Inactive-C1s
Assay: kinetic binding measurement, method not stated; Table 10, pro-C1s

Row | Kd [pM] | koff [s⁻¹] | kon [M⁻¹ s⁻¹] | Binder
13 | 229 | 0.000249 | 1.09e+06 | B1
14 | 291 | 0.000315 | 1.08e+06 | B2
15 | 252 | 0.000262 | 1.04e+06 | B3
16 | 291 | 0.000319 | 1.1e+06 | B4
17 | 303 | 0.000285 | 941000 | B5
18 | 278 | 0.000306 | 1.1e+06 | B6
19 | 271 | 0.000269 | 993000 | B7
20 | 262 | 0.000263 | 1.01e+06 | B8
21 | 330 | 0.000351 | 1.06e+06 | B9
22 | 252 | 0.000255 | 1.02e+06 | B10
23 | 284 | 0.000275 | 968000 | B11
24 | 191 | 0.000198 | 1.04e+06 | B12
